Molecular target: SARS-CoV-2 HexaPro Spike (SARS-CoV-2, WA-1 / Wuhan-Hu-1 …, UniProt P0DTC2, stabilised, N-linked glycans (built in the model))
Assay: cryo-EM structure

B1: STI-9167 Fab (therapeutically-modified version of FG-10A3) (Fab, V domains shown)
VH: QVQLVESGGGVVQPGRSLRLSCAASGFTFSSYGMNWVRQAPGKGLEWVAIIWYYGNNKYYVDSVKGRFTISRDNSKNTLYLQMNSLRAEDTAVYYCARKDYSKTYYGYYFDYWGQGTLVTVSS
VL: DIQMTQSPSSLSASVGDRVTITCRASQSIHSFLNWYQQKPGKPPNLLIYAASSLQSGLPSRFSGSGSGTDFTLTISSLQPEDFATYYCQQSYITPPTFGQGTKVEIK
binding result: binds
